Patent US20110200585A1 (GlaxoSmithKline, published 2011)
Positions count from the first letter of the chain named. Each block holds one binder with its values, some of them ahead of it.

How the values were obtained:
[1] = molecular target: T1, human IL-7Rα (CD127) on cells (human, UniProt P16871 21-459); experiment: cell-based or functional assay
T1 chain: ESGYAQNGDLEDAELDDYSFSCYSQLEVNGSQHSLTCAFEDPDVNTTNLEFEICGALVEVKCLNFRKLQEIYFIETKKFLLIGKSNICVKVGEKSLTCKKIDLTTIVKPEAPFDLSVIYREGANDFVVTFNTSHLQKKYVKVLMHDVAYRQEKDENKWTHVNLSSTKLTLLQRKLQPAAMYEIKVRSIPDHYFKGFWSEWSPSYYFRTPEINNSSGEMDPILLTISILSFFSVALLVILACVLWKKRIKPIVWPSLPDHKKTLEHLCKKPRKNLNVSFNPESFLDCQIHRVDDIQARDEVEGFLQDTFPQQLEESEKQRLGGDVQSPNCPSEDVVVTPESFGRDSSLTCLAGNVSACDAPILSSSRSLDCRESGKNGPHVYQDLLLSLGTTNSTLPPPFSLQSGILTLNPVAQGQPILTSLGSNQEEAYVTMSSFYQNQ

Human FcRn = Human FcRn (human, UniProt P55899 24-297; P61769 21-119, limits assumed); experiment: SPR, ProteOn XPR36; antibody amine-coupled to GLM chip, FcRn 8-2048 nM as analyte, equilibrium fit, pH 6.0
Experimental: (§1) The work was carried out on the ProteOn XPR36 surface plasmon resonance machine (BioRad). The antibodies to be tested were coupled to a GLM biosensor chip by primary amine coupling. […] All binding sensograms were double referenced with a 0 nM injection (i.e. buffer alone). The data was fitted to the Equilibrium model inherent to the ProteOn analysis software.

Cyno FcRn = Cyno FcRn (cyno, UniProt Q8SPV9 24-297; Q8SPW0 21-119, limits assumed); experiment: as above
Experimental: as §1

Mouse FcRn = molecular target: T2, Mouse FcRn (mouse, UniProt Q61559 22-297; P01887 21-119, limits assumed); experiment: as above
T2 sequence (looked up) 1: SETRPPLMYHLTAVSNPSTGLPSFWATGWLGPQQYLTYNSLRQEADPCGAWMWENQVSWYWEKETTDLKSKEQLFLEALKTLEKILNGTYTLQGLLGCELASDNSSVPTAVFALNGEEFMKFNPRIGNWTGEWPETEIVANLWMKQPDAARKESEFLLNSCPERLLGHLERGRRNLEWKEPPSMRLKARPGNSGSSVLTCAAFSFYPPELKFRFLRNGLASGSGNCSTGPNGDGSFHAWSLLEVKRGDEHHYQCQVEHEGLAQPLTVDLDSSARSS
T2 sequence (looked up) 2: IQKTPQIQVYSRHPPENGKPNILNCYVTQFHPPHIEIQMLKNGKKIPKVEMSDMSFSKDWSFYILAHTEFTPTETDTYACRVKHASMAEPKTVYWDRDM
Experimental: as §1

rat FcRn = molecular target: T3, rat FcRn (rat, UniProt P13599 23-298; P07151 21-119, limits assumed); experiment: as above
T3 sequence (looked up) 1: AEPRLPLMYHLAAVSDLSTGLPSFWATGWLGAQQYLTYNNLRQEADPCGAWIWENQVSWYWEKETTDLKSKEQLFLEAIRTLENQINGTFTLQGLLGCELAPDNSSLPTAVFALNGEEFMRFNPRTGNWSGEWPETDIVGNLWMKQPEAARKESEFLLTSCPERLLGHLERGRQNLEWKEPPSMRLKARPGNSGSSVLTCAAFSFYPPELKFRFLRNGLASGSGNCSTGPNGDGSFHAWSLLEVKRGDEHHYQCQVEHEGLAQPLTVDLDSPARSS
T3 sequence (looked up) 2: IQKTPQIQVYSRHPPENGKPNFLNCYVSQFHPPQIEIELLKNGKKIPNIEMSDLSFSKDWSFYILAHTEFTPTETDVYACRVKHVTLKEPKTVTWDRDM
Experimental: as §1

Fcγ2a (Arg) = molecular target: T4, Fcγ2a (Arg) (UniProt P12318 34-217); experiment: SPR, ProteOn XPR36; antibody amine-coupled to GLM chip, receptor 8-2048 nM as analyte, equilibrium fit, pH 7.4
T4 construct: also called Fc Gamma IIa, Arg form
T4 sequence (looked up): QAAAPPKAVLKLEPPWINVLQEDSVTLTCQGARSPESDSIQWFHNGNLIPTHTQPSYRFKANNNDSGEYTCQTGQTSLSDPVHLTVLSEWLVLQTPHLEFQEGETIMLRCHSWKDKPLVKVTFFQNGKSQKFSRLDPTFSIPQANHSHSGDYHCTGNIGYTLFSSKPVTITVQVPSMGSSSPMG
Experimental: as §1

Fcγ2a (His) [2] = molecular target: T5, Fcγ2a (His) (UniProt P12318 34-217); experiment: as above
T5 construct: also called Fc Gamma IIa, His form
T5 sequence (looked up): T4 sequence (looked up) with R134H
Experimental: as §1

Fcγ3a (Phe) [3] = molecular target: T6, Fcγ3a (Phe) (UniProt P08637 17-208); experiment: as above
T6 construct: also called Fc Gamma IIIa, Phe form
T6 sequence (P08637 17-208): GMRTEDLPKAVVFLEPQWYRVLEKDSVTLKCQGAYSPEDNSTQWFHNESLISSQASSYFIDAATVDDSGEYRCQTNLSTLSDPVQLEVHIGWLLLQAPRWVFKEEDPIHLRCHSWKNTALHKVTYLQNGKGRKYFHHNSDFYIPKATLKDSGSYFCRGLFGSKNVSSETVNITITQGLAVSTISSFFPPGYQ
Experimental: as §1

Fcγ (Val) [4] = molecular target: T7, Fcγ (Val) (UniProt P08637 17-208); experiment: as above
T7 sequence (P08637 17-208 F176V): as the sequence (P08637 17-208) above, with F160V counted along it
Experimental: as §1

Fcγ1 = molecular target: T8, Fcγ1 (UniProt P12314 16-288); experiment: as above
T8 construct: also called Fc Gamma I
T8 sequence (P12314 16-288): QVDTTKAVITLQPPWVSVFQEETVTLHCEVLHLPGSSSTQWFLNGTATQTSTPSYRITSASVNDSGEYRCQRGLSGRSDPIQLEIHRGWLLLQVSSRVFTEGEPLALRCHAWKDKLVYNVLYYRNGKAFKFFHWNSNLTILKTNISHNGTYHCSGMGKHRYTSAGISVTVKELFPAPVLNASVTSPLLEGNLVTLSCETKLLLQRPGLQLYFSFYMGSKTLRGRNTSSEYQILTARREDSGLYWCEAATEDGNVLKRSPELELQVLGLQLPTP
Experimental: as §1

Fcγ2a (His) [5] = molecular target: T5, Fcγ2a (His); experiment: SPR, ProteOn XPR36; antibody amine-coupled to GLM chip, receptor as analyte
Experimental: as §1

Fcγ3a (Phe) [6] = molecular target: T6, Fcγ3a (Phe); experiment: as above
Experimental: as §1

Fcγ (Val) [7] = molecular target: T7, Fcγ (Val); experiment: as above
Experimental: as §1

- IC50 of inhibition of IL-7 induced STAT5 phosphorylation in human PBMC (flow cytometry) [1]: 0.088 µg/mL
B1: parental 1A11 monoclonal antibody (antibody, V domains shown)
VH: EVQLQQSGPELLKPGASMKISCKASGYSFTGYTMNWVKQSHGKNLEWIGLINPYNGVTSYNQKFKGKATLTVAKSSSTAYMELLSLTSEDSAVYYCARGDGNYWYFDVWGAGTTVTVSS
VL: EIVLTQSPAITAASLGQKVTITCSASSSVTYMHWYQQKSGTSPKPWIYEISKLASGVPVRFSGSGSGTSYSLTISSMEAEDAAIYYCQEWNYPYTFGGGTKLEIK

- Kd (Human FcRn): 183 nM
- Kd (Cyno FcRn): 210 nM
- Kd (Mouse FcRn): 192 nM
- Kd (rat FcRn): 145 nM
- Kd (Fcγ2a (Arg)): 1250 nM
- Kd (Fcγ2a (His) [2]): 1040 nM
- Kd (Fcγ3a (Phe) [3]): 990 nM
- Kd (Fcγ (Val) [4]): 319 nM
- Kd (Fcγ1): 21.4 nM
B2: 1A11 H3L4 (antibody, IgG1)
heavy: not shown
light: EIVLTQSPATLSLSPGERATLSCSASSSVTYMHWYQQKPGQAPRPLIYEISKLASGIPARFSGSGSGTDFTLTISSLEPEDFAVYYCQEWNYPYTFGGGTKVEIKRTVAAPSVFIFPPSDEQLKSGTASVVCLLNNFYPREAKVQWKVDNALQSGNSQESVTEQDSKDSTYSLSSTLTLSKADYEKHKVYACEVTHQGLSSPVTKSFNRGEC
notes: Humanised IgG1 kappa; also called BPC1142; anti-IL7R 1A11 H3L4; copies: 2 + 2

- Kd (Human FcRn): 158 nM
- Kd (Cyno FcRn): 248 nM
- Kd (Mouse FcRn): 207 nM
- Kd (rat FcRn): 163 nM
B3: 1A11 H3L4Fc (antibody)
heavy: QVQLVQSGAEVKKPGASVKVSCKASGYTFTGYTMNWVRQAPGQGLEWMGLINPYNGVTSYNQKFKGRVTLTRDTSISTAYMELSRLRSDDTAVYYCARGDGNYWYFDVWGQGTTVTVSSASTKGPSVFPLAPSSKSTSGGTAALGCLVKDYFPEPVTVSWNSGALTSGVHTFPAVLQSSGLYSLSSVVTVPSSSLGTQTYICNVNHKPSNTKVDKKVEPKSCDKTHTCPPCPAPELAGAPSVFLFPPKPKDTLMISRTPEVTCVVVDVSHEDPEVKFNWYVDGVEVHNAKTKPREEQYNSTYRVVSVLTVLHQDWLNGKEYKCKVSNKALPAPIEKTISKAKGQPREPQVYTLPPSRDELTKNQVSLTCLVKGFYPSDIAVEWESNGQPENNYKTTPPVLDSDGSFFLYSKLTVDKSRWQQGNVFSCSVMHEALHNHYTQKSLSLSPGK
light: B2 light
notes: also called Fc-disabled anti-IL7R mAb; Fc-disabled 1A11 H3L4; copies: 2 + 2
- binding result (Fcγ2a (His) [5]): no binding (tested: up to 2048 nM receptor)
- binding result (Fcγ3a (Phe) [6]): no binding (tested: up to 2048 nM receptor)
- binding result (Fcγ (Val) [7]): no binding (tested: up to 2048 nM receptor)
